In publication PMC10645074, “Insulin receptor Arg717 and IGF-1 receptor Arg704 play a key role in ligand binding and in receptor activation” (Open Biology, 2023):

Biological target: T1, 125I-TyrA14 human insulin (human, 125I on TyrA14 (specific activity 2200 Ci/mmol))
T1 construct: insulin A chain, human, cut product of proinsulin; insulin B chain, human, cut product of proinsulin; also called ^125I-HI; HI
Experiment: radioligand binding; saturation binding of the 125I-labelled ligand (0.05-5 nM) to isolated ectodomain-mCherry (300 ng/well) immobilised through its HisTag on 96-well plates by nickel-NTA iBodies with biotin on neutravidin; otherwise as the whole-cell assay; one-site specific binding fit
Settings: both partners purified

B1: isolated ecto-IR-A Arg717Gln conjugated with mCherry (domain or fragment)
chain 1: HLYPGEVCPGMDIRNNLTRLHELENCSVIEGHLQILLMFKTRPEDFRDLSFPKLIMITDYLLLFRVYGLESLKDLFPNLTVIRGSRLFFNYALVIFEMVHLKELGLYNLMNITRGSVRIEKNNELCYLATIDWSRILDSVEDNYIVLNKDDNEECGDICPGTAKGKTNCPATVINGQFVERCWTHSHCQKVCPTICKSHGCTAEGLCCHSECLGNCSQPDDPTKCVACRNFYLDGRCVETCPPPYYHFQDWRCVNFSFCQDLHHKCKNSRRQGCHQYVIHNNKCIPECPSGYTMNSSNLLCTPCLGPCPKVCHLLEGEKTIDSVTSAQELRGCTVINGSLIINIRGGNNLAAELEANLGLIEEISGYLKIRRSYALVSLSFFRKLRLIRGETLEIGNYSFYALDNQNLRQLWDWSKHNLTITQGKLFFHYNPKLCLSEIHKMEEVSGTKGRQERNDIALKTNGDQASCENELLKFSYIRTSFDKILLRWEPYWPPDFRDLLGFMLFYKEAPYQNVTEFDGQDACGSNSWTVVDIDPPLRSNDPKSQNHPGWLMRGLKPWTQYAIFVKTLVTFSDERRTYGAKSDIIYVQTDATNPSVPLDPISVSNSSSQIILKWKPPSDPNGNITHYLVFWERQAEDSELFELDYCLKGLKLPSRTWSPPFESEDSQKHNQSEYEDSAGECCSCPKTDSQILKELEESSFRKTFEDYLHNVVFVPQPS
chain 2: SLGDVGNVTVAVPTVAAFPNTSSTSVPTSPEEHRPFEKVVNKESLVISGLRHFTGYRIELQACNQDTPEERCSVAAYVSARTMPEAKADDIVGPVTHEIFENNVVHLMWQEPKEPNGLIVLYEVSYRRYGDEELHLCVSRKHFALERGCRLRGLSPGNYSVRIRATSLAGNGSWTEPTYFYVTDYLDVPSNIAK
With B1 the Kd was 0.27 nM.
